Among the data in US20190071480A1 (Biogen, published 2019) are Kd values, retold here.

For assay [1], the target named is T1, extracellular domain of activin receptor type IIB (ActRIIBecd), biotinylated (Homo sapiens (Human), UniProt Q13705 27-117, amino-biotinylated with amine-PEG3-Biotin).
T1 construct: immobilised on a streptavidin-coated sensor chip; also called biotinylated ActRIIBecd; extracellular domain of ActRIIB
T1 sequence: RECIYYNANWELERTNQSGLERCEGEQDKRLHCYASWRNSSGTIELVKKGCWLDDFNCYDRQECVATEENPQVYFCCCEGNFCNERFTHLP
The assay can be described thus: BIAcore SPR, biotinylated ActRIIBecd on chip; SD ±15.74 nM. As to the method: (§1) Biosensor experiments. In one embodiment, experiments were performed on a BIAcore™ T100/T200 instrument (Pharmacia Biosensor AB) in the multichannel mode (serial flow path involving flow cells 1+2+3+4). Flow rate was 10 μl/min; temperature was 25° C.; and data were recorded at 2.5 points/s. All four segments of a sensor chip CMS were coated with streptavidin (Sigma) to a density of 2000 pg/mm² (2000 resonance units) by the aminocoupling procedure. ActRIIBecd (10 mg) and amine-PEG3-Biotin (10 mg, Pierce, Rockford, Ill.) were dissolved in 200 μl H₂O and 10 mg NaCNBH₃ was added to prepare biotinylated ActRIIBecd. The reaction mixture was heated at 70° C. for 24 h, after that a further 10 mg NaCNBH₃ was added and the reaction was heated at 70° C. for another 24 h. After cooling to room temperature, the mixture was desalted with the spin column (3,000 molecular weight cut off (MWCO)). […] Sensograms were recorded during flow of the analyte (the ActRIIBecd-associated polypeptides (i.e., domains) as previously described) first through flow cell 1 (control) then through flow cell 2 (biotinylated ActRIIBecd). […] The sensograms obtained at 1.11, 3.33, 10, 30, and 90 nM analyte were evaluated for equilibrium binding, association rate, and dissociation rate by using the programs supplied with the instrument (BIA evaluation 2.1; Software Handbook. 1995; Pharmacia Biosensor AB).
(In SPR one partner is held on a chip, and binding of the other changes the refractive index at the surface.)

In assay [2] the target is T1, extracellular domain of activin …. The assay can be described thus: BIAcore SPR, biotinylated ActRIIBecd on chip; SD ±19.56 nM. The protocol:
as §1

Assay [3] has the same target. Description: BIAcore SPR as Example 5 (method not restated); SD ±1.84 nM. As to the method:
as §1

Assay [4] shares this target. Description: Mean KD column of Table 5; method not restated (BIAcore as Example 5); species also listed in Table 4. An outline of the steps:
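Surface plasmon resonance on an immobilised biotinylated receptor ectodomain (streptavidin capture, 50-250 RU) measured binding of polypeptides at 1.11, 3.33, 10, 30 and 90 nM. Flow cell 1 served as blank.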

Assay [5] has the same target. The assay can be described thus: BIAcore SPR as Example 5 (method not restated); SD ±2.36 nM. As to the method: as §1
Assay [6] shares this target. The assay can be described thus: BIAcore SPR as Example 5 (method not restated); SD ±1.94 nM. The protocol:
as §1

Assay [7] shares this target. Description: BIAcore SPR as Example 5 (method not restated); SD ±3.33 nM. The protocol: as §1
The target is the same in assay [8]. The assay can be described thus: BIAcore SPR as Example 5 (method not restated); SD ±1.45 nM. The protocol:
as §1

The target is the same in assay [9]. The assay can be described thus: BIAcore SPR as Example 5 (method not restated); SD ±1.92 nM. The protocol:
as §1

Assay [10] shares this target. The assay can be described thus: BIAcore SPR, biotinylated ActRIIBecd on chip; SD ±14.15 nM. The protocol: as §1
Assay [11] shares this target. The assay can be described thus: BIAcore SPR, biotinylated ActRIIBecd on chip; SD ±16.14 nM. The protocol: as §1
For assay [12] the target is unchanged. Description: BIAcore SPR, biotinylated ActRIIBecd on chip; SD ±19.71 nM. As to the method: as §1
Assay [13] has the same target. The assay can be described thus: BIAcore SPR, biotinylated ActRIIBecd on chip; SD ±18.15 nM. The protocol: as §1
The target is the same in assay [14]. The assay can be described thus: BIAcore SPR, biotinylated ActRIIBecd on chip; SD ±11.88 nM. As to the method: as §1
Assay [15] has the same target. Description: BIAcore SPR, biotinylated ActRIIBecd on chip; SD ±17.42 nM. The protocol: as §1
Assay [16] shares this target. Description: BIAcore SPR, biotinylated ActRIIBecd on chip; SD ±13.69 nM.
The target is the same in assay [17]. The assay can be described thus: BIAcore SPR, biotinylated ActRIIBecd on chip; SD ±13.59 nM. As to the method:
as §1

Assay [18] shares this target. Description: BIAcore SPR, biotinylated ActRIIBecd on chip; SD ±18.52 nM. The protocol:
as §1

For assay [19] the target is unchanged. Description: BIAcore SPR, biotinylated ActRIIBecd on chip; SD ±14.42 nM. As to the method:
as §1

For assay [20] the target is unchanged. The assay can be described thus: BIAcore SPR, biotinylated ActRIIBecd on chip; SD ±13.44 nM. As to the method: as §1

B1: Recombinant polypeptide of clones 23 + 24 (designed binder)
chain: NSKIPKACCVPTELSAISMLYLDENEKPVLKNYQDMVVEGCGCRNSKDPKACCVPTELSAISMLYLDENEKVVLKNYQDMVVHGCGCR
Consider B1, for which the affinity in [1], expressed as Kd, was 61.8 nM.

B2: Recombinant polypeptide of clones 17 + 18 (designed binder)
chain: VDFSDVGWNDWIVAPPGYHAFYCHGECPFPLADHLNSDNHAIVQTLVNSVVDFSDVGWNDHAVAPPGYHAFYCHGECPFPLADHLNSTNHAIVQTLVNSV
For the molecule B2, in [2], the affinity, expressed as Kd, was 65.8 nM.

B3: SEQ ID NO: 332, cysteine pairs C15-C15^b, C80-C112^a, C79-C114^a, C44-C48^a (designed binder)
chain: GQAKRKGYKRLKSSCKRHPLYVDFSDVGWNDWIVAPPGYHAFYCHGECPFPLADHLNSTNHAIVQTLVNSVNSKDPKACCVPTELSAPSPLYLDENEKPVLKNYQDMVVHGCGCR
modifications: disulfides C15-C15 (inter), C80-C112 (intra), C79-C114 (intra), C44-C48 (intra)
notes: homodimer by intermolecular disulfide
For the molecule B3, the Kd in assay [3] and in [4] was 7.18 nM throughout.

B4: SEQ ID NO: 332, cysteine pairs C79-C80^a (designed binder)
chain: B3 chain
modifications: disulfides C79-C80 (intra)
For the molecule B4, the Kd in assay [5] and in assay [4] was 28.5 nM each time.

B5: SEQ ID NO: 332, cysteine pairs C15-C15^b, C80-C114^b, C79-C112^b, C44-C48^a (designed binder)
chain: B3 chain
modifications: disulfides C15-C15 (inter), C80-C114 (inter), C79-C112 (inter), C44-C48 (intra)
notes: as for B3
With B5, the dissociation constant Kd in assay [4] and in assay [6] was 7.42 nM throughout.

B6: SEQ ID NO: 348, cysteine pairs C29-C30^a (designed binder)
chain: GQAKRKGYKRLKSSCKRHPLYNSKIPKACCVPTELSAISMLYLDENEKVVLKNYQDMVVEGCGCRVDFSDVGWNDWIVAPPGYHAFYCHGECPFPLADHLNSTNHAIVQTLVNSV
modifications: disulfides C29-C30 (intra)
Take B6: the Kd in [7] and in assay [4] was 29.1 nM throughout.

B7: SEQ ID NO: 348, cysteine pairs C15-C15^b, C29-C62^b, C30-C64^b, C88-C92^a (designed binder)
chain: B6 chain
modifications: disulfides C15-C15 (inter), C29-C62 (inter), C30-C64 (inter), C88-C92 (intra)
notes: as for B3
As for B7, the dissociation constant Kd in assay [4] and in [8] was 6.31 nM each time.

B8: SEQ ID NO: 348, cysteine pairs C15-C15^b, C29-C64^a, C30-C62^a, C88-C92^a (designed binder)
chain: B6 chain
modifications: disulfides C15-C15 (inter), C29-C64 (intra), C30-C62 (intra), C88-C92 (intra)
notes: as for B3
As to B8, the dissociation constant (Kd) in [4] and in assay [9] was 6.77 nM each time.
For the molecule TYPASPKPMRHKMRSCACCAGGLRNRTGTV [Clone No. 25 domain (ActRIIBecd-associated polypeptide)], binding in assay [10] was put at a Kd of 41.1 nM.
Turning to TYPASPKPMRHSMRSCACCAGGLRNQTGTV [Clone No. 26 domain (ActRIIBecd-associated polypeptide)], binding in [11] was put at a Kd of 39.6 nM.
Consider AQAKHKGYKRLKSSCKRHPLYAQAKHKGRKRLKSSCKRHPLY (designed binder) [Recombinant polypeptide of clones 9 + 11], for which the Kd (in general, the equilibrium constant for the complex coming apart) in assay [12] was found to be 59.1 nM.
For AQAKHKGRKRLKSSCKRHPLYAQAKHKGYKRLKSSCKRHPLY (designed binder) [Recombinant polypeptide of clones 11 + 9], in assay [13], the dissociation constant (Kd) is 58.2 nM.
Regarding NSKIPKACCVPTELSAISMLYLDENEKVVLKNYQDMVVEGCGCR [Clone No. 21 domain (ActRIIBecd-associated polypeptide)], in assay [14], the Kd amounted to 37.1 nM.
NSKIPKACCVPTELSAISMLYLDENEKPVLKNYQDMVVEGCGCR [Clone No. 23 domain (ActRIIBecd-associated polypeptide)] showed a Kd in assay [15] of 64.4 nM.
As to NSKDPKACCVPTELSAPSPLYLDENEKPVLKNYQDMVVHGCGCR [Clone No. 19 domain (ActRIIBecd-associated polypeptide)], the Kd in [16] is 40.1 nM.
The molecule NSKDPKACCVPTELSAISMLYLDENEKVVLKNYQDMVVHGCGCR [Clone No. 24 domain (ActRIIBecd-associated polypeptide)] registered a Kd in [17] of 56.7 nM.
On to NSKIPKACCVPTELSAISPLYLDENEKVVLKNYQDMVVHGCGCR [Clone No. 22 domain (ActRIIBecd-associated polypeptide)], for which, in assay [18], the Kd is 51.7 nM.
In the case of EPLGGARWEAFDVTDAVQSHRRSPRASRKCCLGLRAVTAS [Clone No. 28 domain (ActRIIBecd-associated polypeptide)], in [19], the equilibrium dissociation constant (Kd) stood at 53.8 nM.
For EPLGGARWEAFDVTDAVQSHRRSQRASRKCCLVLRAVTAS [Clone No. 29 domain (ActRIIBecd-associated polypeptide)], the Kd in [20] was 57.9 nM.
